Experiment [1] deals with T1, human full-length recombinant tau (2N4R) (human, UniProt P10636 2-758).
T1 construct: also called full length tau protein; full-length recombinant Tau protein
Kind of experiment: SPR, Biacore T200, 25 C, mAb captured by anti-Fc on CM4 chip, tau in solution, 1:1 Langmuir fit; koff based on 1-hour limit, 5% dissociation. As to the method:
(§1) The interactions of anti-tau antibodies with human full-length recombinant tau (2N4R) were studied by SPR using a Biacore T200 at 25° C. with HBS pH 7.4 buffer, supplemented with 3 mM EDTA, and 0.05% Tween 20. Briefly, a biosensor surface was prepared by coupling a mixture of anti-mouse/anti-human IgG Fcγ-fragment specific antibody to the surface of a CM4 sensor chip using manufacturer's instructions for amine-coupling chemistry (>4000 response units (RU)). The coupling buffer was 10 mM sodium acetate, pH 4.5. The anti-tau antibodies were diluted in the running buffer and injected to obtain enough capture to enable detection of antigen binding. Capture of anti-tau mAbs was followed by injection of recombinantly expressed tau solutions ranging from 0.12 nM to 75 nM at 5-fold dilutions. The association and dissociation were monitored for 3 minutes and 60 min respectively at 50 μL/min flow rate. Regeneration of the sensor surface was performed with 0.85% H₃PO₄. The binding sensorgrams were fitted using to a 1:1 Langmuir binding model to obtain on-rates, off-rates, and affinities. PT1B635 and PT1B901 bound to full length tau protein with similar tight affinities as the parent mAbs, PT/66 or PT1B545 (FIG. 3 and Table 2 below).
Background: SPR reads the build-up and loss of mass on a sensor chip optically.

The target in experiment [2] is T1, human full-length recombinant tau (2N4R). Kind of experiment: SPR, Biacore T200, 25 C, mAb captured by anti-Fc on CM4 chip, tau in solution, 1:1 Langmuir fit. The method, then: as §1
The target is the same in experiment [3]. Kind of experiment: SPR, mAb captured, tau in solution, single-cycle kinetics, 1:1 Langmuir fit; koff based on 2-hour limit, 5% dissociation.
Experiment [4] shares this target. Kind of experiment: SPR, mAb captured, tau in solution, single-cycle kinetics, 120 min dissociation, 1:1 Langmuir fit.

The values below come from US20240166731A1 (Janssen / Centocor, published 2024).

T1 sequence (P10636 other isoform, or with tags, fused parts or gaps limits assumed): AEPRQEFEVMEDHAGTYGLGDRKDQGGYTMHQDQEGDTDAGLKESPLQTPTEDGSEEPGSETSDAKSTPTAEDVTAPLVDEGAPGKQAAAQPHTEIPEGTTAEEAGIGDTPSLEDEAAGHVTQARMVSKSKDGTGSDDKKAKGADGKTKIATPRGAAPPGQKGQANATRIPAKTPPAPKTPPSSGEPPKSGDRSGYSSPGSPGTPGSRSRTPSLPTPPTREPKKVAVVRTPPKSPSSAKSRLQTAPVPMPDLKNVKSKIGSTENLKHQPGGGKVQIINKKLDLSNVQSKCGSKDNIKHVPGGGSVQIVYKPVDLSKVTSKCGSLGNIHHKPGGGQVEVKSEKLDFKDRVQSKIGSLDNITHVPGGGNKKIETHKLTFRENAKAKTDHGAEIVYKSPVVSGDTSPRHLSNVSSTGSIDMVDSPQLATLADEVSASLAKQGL

B1: PT1B635 (antibody, human IgG1, kappa, V domains shown)
VH: QVQLVQSGAEVKKPGASVKVSCKASGYTFTSYWITWVRQAPGQGLEWMGDIHPGRGSTKYAQKLQGRVTLTTDTSTSTAYMELRSLRSDDTAVYYCARRWGFDYWGQGTLVTVSS
VL: DIVITQTPLSLPVTPGEPASISCRSSKSLLYKDGKTYLNWFLQKPGQSPQLLIYLMSTRASGVPDRFSGSGSGTDFTLKISRVEAEDVGVYYCQQLVDYPLTFGQGTKLEIKR
notes: also called humanized PT/66 variant
As usually defined, the koff is a measure of how fast the partners let go of each other. What is called Kd is the concentration at which binding is half-saturated. As usually defined, the kon is the second-order rate constant of association. As to B1, the koff in experiment [1] was under 1.42e-05 s⁻¹. Besides, in experiment [2], the Kd was under 0.041 nM and the kon came out at 370000 M⁻¹ s⁻¹.

B2: PT1B1183 (antibody, human IgG1, kappa, V domains shown)
VH: QVQLVQSGAEVKKPGASVKVSCKASGYTFTSYWITWVRQRPGQGLEWMGDIHPGRGSTKYAQKLQGRVTMTTDTSTSTAYMELRSLRSDDTAVYYCARRWGFDYWGQGTLVTVSS
VL: DIVMTQTPLSSPVTLGQPASISCRSSKSLLYKDGKTYLNWFQQRPGQSPRLLIYLMSTRASGVPDRFSGSGAGTDFTLKISRVEAEDVGVYYCQQLVDYPLTFGQGTKLEIKR
notes: also called humanized antibody derived from PT1B1153 by modifying the 2nd light chain framework region
For B2, in experiment [3], the koff was under 1.19e-05 s⁻¹. In experiment [4], the Kd was under 0.00618 nM and the on-rate constant (kon) is 1.99e+06 M⁻¹ s⁻¹.

B3: PT1B901 (antibody, human IgG1, kappa, V domains shown)
VH: QVQLVQSGAEVKKPGASVKVSCKASGYTFTSYWITWVRQAPGQGLEWMGDIHPGRGSTKYAQKLQGRVTLTTDTSTSTAYMELRSLRSDDTAVYYCARRWGFDYWGQGTLVTVSS
VL: DIVITQTPLSLPVTPGEPASISCRSSKSLLYKDLKTYLNWFLQKPGQSPQLLIYLMSTRASGVPDRFSGSGSGTDFTLKISRVEAEDVGVYYCQQLVDYPLTFGQGTKLEIKR
notes: also called humanized PT/66 variant with G44L in LCDR1
Consider B3, for which, in experiment [2], the dissociation constant Kd came to 0.059 nM, the dissociation rate constant (koff) stood at 2e-05 s⁻¹ and the kon came out at 300000 M⁻¹ s⁻¹.

B4: PT/66 anti-PHF-Tau monoclonal Ab (mouse parent) (antibody, V domains shown)
VH: QVQLQQPGAELVKPGASVKMSCKASGYTFTSYWITWVKQRPGQGLEWIGDIHPGRGSTKSNEKFKSKATLTVDTSSSTAYMQFSSLTSEDSAVYYCARRWGFDYWGQGTTLTVSS
VL: DIVITQDELSNPVTSGESVSISCRSSKSLLYKDGKTYLNWFLQRPGQSPQLLIYLMSTRASGVSDRFSGSGSGTDFTLEISRVKAEDVGVYYCQQLVDYPLTFGAGTKLELK
notes: Murine mAb
As to B4, the dissociation rate constant (koff) in experiment [1] was under 1.42e-05 s⁻¹. Besides, in experiment [2], the Kd was under 0.031 nM and the kon stood at 450000 M⁻¹ s⁻¹.

B5: PT1B545 (antibody, mouse IgG2a, kappa, V domains shown)
VH: QVQLQQPGAELVKPGASVKMSCKASGYTFTSYWITWVKQRPGQGLEWIGDIHPGRGSTKSNEKFKSKATLTVDTSSSTAYMQFSSLTSEDSAVYYCARRWGFDYWGQGTTLTVSS
VL: DIVITQDELSNPVTSGESVSISCRSSKSLLYKDGKTYLNWFLQRPGQSPQLLIYLMSTRASGVSDRFSGSGSGTDFTLEISRVKAEDVGVYYCQQLVDYPLTFGAGTKLELKR
notes: Recombinant version of the parent mAb PT/66, with mouse constant regions; also called rec. parent; recombinant parent of PT/66
As to B5, in experiment [1], the koff was under 1.42e-05 s⁻¹. Moreover, in experiment [2], the Kd is under 0.028 nM and the kon was determined as 510000 M⁻¹ s⁻¹.
